Experimental findings from US20250188184A1 are described below.

In general, Kd refers to the free concentration of one partner at which half of the binding sites on the other are occupied at equilibrium, for simple one-to-one binding. Higher therefore signals lower affinity.

The experiment addresses CD3 (target of the Pool 1 CD3.23 screen). The experiment can be described thus: Octet, crude lysate.

Chain of CD3 (target of the Pool 1 CD3.23 screen) (P07766 23-126): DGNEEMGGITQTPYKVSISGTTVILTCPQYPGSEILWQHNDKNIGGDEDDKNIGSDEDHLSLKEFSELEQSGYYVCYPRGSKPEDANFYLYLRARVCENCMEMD

B1: CD3.23-L7 (AC3364) (bispecific antibody, V domains shown)
VH: EVQLLESGGGIVQPGGSLKLSCAASGFTFNTYAMNWVRQAPGKGLEWVARIRSKYNNYATYYADSVKDRFTISRDDSKNTVYLQMNNLKTEDTAVYYCVRHENFGNSYVSWFAHWGQGTLVTVSS
VL: ELVVTQEPSLTVSPGGTVTLTCRSSNGAVTSSNYANWVQQKPGQAPRGLIGGTNKRAPGTPARFSGSLLGGKAALTLSGVQPEDEAVYYCALWYPNLWVFGGGTKLTVL
Turning to B1, the Kd worked out at 8.5 nM.

B2: CD3.23-D (AC3366) (bispecific antibody, V domains shown)
VH: EVQLLESGGGIVQPGGSLKLSCAASGFTFNTYAMNWVRQAPGKGLEWVARIRSKYNNYATYYADSVKDRFTISRDDSKNTVYLQMNNLKTEDTAVYYCVRHENFGNSYVSWFAHWGQGTLVTVSS
VL: ELVVTQEPSLTVSPGGTVTLTCRSSNGAVTSSNYANWVQQKPGQAPRGLIGGTNKRAPGTPARFSGSLLGGKAALTLSGVQPEDEAVYYCALWYPNLWVFGGGTKLTVL
For B2, the Kd turned out to be 14 nM.

B3: CD3.43 (AC3372) (bispecific antibody, V domains shown)
VH: EVQLLESGGGIVQPGGSLKLSCAASGFTFNTYAMNWVRQAPGKGLEWSARIRSKYNNYATYYADSVKDRFTISRDDSKNTVYLQMNNLKTEDTAVYYCVRHENFGNSYVSWFAHWGQGTLVTVSS
VL: ELVVTQEPSLTVSPGGTVTLTCRSSNGAVTSSNYANWVQQKPGQAPRGLIGGTNKRAPGTPARFSGSLLGGKAALTLSGVQPEDEAVYYCALWYPNLWVFGGGTKLTVL
B3 returned a Kd of 11.2 nM.

B4: CD3.40 (AC3369) (bispecific antibody, V domains shown)
VH: EVQLLESGGGIVQPGGSLKLSCAASGFTFNTYAMNWVRQAPGKGLEWAARIRSKYNNYATYYADSVKDRFTISRDDSKNTVYLQMNNLKTEDTAVYYCVRHENFGNSYVSWFAHWGQGTLVTVSS
VL: ELVVTQEPSLTVSPGGTVTLTCRSSNGAVTSSNYANWVQQKPGQAPRGLIGGTNKRAPGTPARFSGSLLGGKAALTLSGVQPEDEAVYYCALWYPNLWVFGGGTKLTVL
As to B4, the Kd was 8.3 nM.

B5: CD3.41 (AC3370) (bispecific antibody, V domains shown)
VH: EVQLLESGGGIVQPGGSLKLSCAASGFTFNTYAMNWVRQAPGKGLEWEARIRSKYNNYATYYADSVKDRFTISRDDSKNTVYLQMNNLKTEDTAVYYCVRHENFGNSYVSWFAHWGQGTLVTVSS
VL: ELVVTQEPSLTVSPGGTVTLTCRSSNGAVTSSNYANWVQQKPGQAPRGLIGGTNKRAPGTPARFSGSLLGGKAALTLSGVQPEDEAVYYCALWYPNLWVFGGGTKLTVL
In turn, B5 yielded a Kd of 165 nM.

B6: CD3.38 (AC3367) (bispecific antibody, V domains shown)
VH: EVQLLESGGGIVQPGGSLKLSCAASGFTFNTYAMNWVRQAPGKGLEDVARIRSKYNNYATYYADSVKDRFTISRDDSKNTVYLQMNNLKTEDTAVYYCVRHENFGNSYVSWFAHWGQGTLVTVSS
VL: ELVVTQEPSLTVSPGGTVTLTCRSSNGAVTSSNYANWVQQKPGQAPRGLIGGTNKRAPGTPARFSGSLLGGKAALTLSGVQPEDEAVYYCALWYPNLWVFGGGTKLTVL
For B6, the Kd came out at 40.2 nM.

B7: CD3.42 (AC3371) (bispecific antibody, V domains shown)
VH: EVQLLESGGGIVQPGGSLKLSCAASGFTFNTYAMNWVRQAPGKGLEWGARIRSKYNNYATYYADSVKDRFTISRDDSKNTVYLQMNNLKTEDTAVYYCVRHENFGNSYVSWFAHWGQGTLVTVSS
VL: ELVVTQEPSLTVSPGGTVTLTCRSSNGAVTSSNYANWVQQKPGQAPRGLIGGTNKRAPGTPARFSGSLLGGKAALTLSGVQPEDEAVYYCALWYPNLWVFGGGTKLTVL
Molecule B7 registered a Kd of 71.5 nM.

B8: CD3.39 (AC3368) (bispecific antibody, V domains shown)
VH: EVQLLESGGGIVQPGGSLKLSCAASGFTFNTYAMNWVRQAPGKGLEEVARIRSKYNNYATYYADSVKDRFTISRDDSKNTVYLQMNNLKTEDTAVYYCVRHENFGNSYVSWFAHWGQGTLVTVSS
VL: ELVVTQEPSLTVSPGGTVTLTCRSSNGAVTSSNYANWVQQKPGQAPRGLIGGTNKRAPGTPARFSGSLLGGKAALTLSGVQPEDEAVYYCALWYPNLWVFGGGTKLTVL
Take B8: the Kd was 18.1 nM.
